The target of series [1] is T1, long-form human leptin receptor, OB-Rb (Homo sapiens, UniProt P48357).
T1 construct: expressed in transfected cells
T1 sequence (P48357 22-1165): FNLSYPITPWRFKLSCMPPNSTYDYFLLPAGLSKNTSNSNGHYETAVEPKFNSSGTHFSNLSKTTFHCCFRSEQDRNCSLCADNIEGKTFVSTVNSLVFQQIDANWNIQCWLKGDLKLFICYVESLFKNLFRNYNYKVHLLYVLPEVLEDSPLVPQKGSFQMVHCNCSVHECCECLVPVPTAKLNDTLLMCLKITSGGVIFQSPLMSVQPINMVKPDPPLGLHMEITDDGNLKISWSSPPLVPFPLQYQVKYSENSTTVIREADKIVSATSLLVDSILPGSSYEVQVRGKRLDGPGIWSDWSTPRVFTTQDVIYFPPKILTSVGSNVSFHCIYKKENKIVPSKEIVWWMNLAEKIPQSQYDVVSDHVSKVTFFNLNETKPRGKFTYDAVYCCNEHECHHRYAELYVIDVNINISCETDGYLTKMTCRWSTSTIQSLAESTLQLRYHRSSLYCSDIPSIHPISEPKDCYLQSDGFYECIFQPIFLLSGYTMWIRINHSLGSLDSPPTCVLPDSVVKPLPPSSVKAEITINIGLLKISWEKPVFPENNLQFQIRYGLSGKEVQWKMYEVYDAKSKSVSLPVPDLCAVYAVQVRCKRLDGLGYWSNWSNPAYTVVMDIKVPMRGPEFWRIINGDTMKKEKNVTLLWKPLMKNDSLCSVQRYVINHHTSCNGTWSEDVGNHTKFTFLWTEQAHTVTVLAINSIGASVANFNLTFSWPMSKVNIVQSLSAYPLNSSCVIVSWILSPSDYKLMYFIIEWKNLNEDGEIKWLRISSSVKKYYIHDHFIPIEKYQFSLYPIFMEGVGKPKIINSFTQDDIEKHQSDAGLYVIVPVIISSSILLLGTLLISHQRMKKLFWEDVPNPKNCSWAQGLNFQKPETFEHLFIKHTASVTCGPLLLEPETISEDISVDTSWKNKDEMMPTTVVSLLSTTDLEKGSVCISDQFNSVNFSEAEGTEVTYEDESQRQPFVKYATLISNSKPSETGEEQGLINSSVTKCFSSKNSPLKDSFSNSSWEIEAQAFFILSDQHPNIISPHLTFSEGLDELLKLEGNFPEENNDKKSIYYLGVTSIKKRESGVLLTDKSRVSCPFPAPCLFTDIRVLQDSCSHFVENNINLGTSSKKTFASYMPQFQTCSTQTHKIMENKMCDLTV
The series can be described thus: 125I-labeled human leptin binding to OB-Rb on stably transfected HEK293 cells, with or without pre-incubation with human CRP. The method, then:
FIG. 4A. Interference effect of human CRP on human leptin binding to its receptor. HEK293 cells stably transfected with the long-form human leptin receptor, OB-Rb (14), are used to examine whether human CRP interferes with the ability of human leptin to bind to its receptor. […] The dashed line at the bottom right of the graph indicates ^125I-leptin bound when two thousand fold excess of non-labeled leptin is added.
(§1) To examine if CRP binding interferes with the stability of human leptin to bind to its receptors, a HEK293 cell line stably transfected with the long-form human leptin receptor, OB—Rb, was used (17). Human leptin was iodinated with Na^125I using the lodogen method. Briefly, 15 μg of recombinant human leptin in 100 mM Phosphate buffer pH 7.5 were incubated with 1 mCi of carrier-free Na^125I (2200 Ci/mmol) in a glass tube containing 50 μg Iodogen. After 10-minute incubation at room temperature, the reaction was stopped with 100 μl 0.1% trifluoroacetic acid (TFA). The reaction mixture was immediately purified by reverse-phase HPLC. The separation employed a 5-minute isocratic step at 20% eluant B in A, followed by two consecutive 30 min linear gradients from 20 to 50%, then from 50 to 60% eluant B in A (where eluant A is water containing 0.1% TFA and eluant B is acetonitrile containing 0.1% TFA) at a flow rate of 1.5 ml/min. […]

In the next series the target is T2, human OB-Rb (Homo sapiens, UniProt P48357).
T2 construct: expressed in transfected cells
T2 sequence (P48357 22-1165): T1 sequence (P48357 22-1165)
The series can be described thus: 125I-labeled mouse leptin pre-incubated with human CRP, binding to HEK293 cells stably transfected with human OB-Rb. As to conditions: in the presence of 2 ng/ml mouse leptin. As to the method:
FIG. 4B. Effects of human CRP on mouse leptin. […] The dashed line at the bottom right of the graph indicates ^125I-leptin bound when two thousand fold excess of non-labeled mouse leptin is added.
as §1, with “ml/min. The ^125I-labeled leptin (˜2 ng/ml) was pre-incubated with various concentrations of human CRP in 1 ml of μ-MEM for 1 hour before added to the OBR-expressing HEK293 cells.” for “ml/min.”

The subject of another series is ob/ob mice. The series can be described thus: Co-infusion of polypeptide E with human CRP and leptin through mini-osmotic pumps into ob/ob mice. The format is in vivo, mouse. The method, then:
FIG. 11. […] Infusion dosages for human CRP and leptin were 48 μg/day/mouse and 12 μg/day/mouse, respectively. The infusion rate for Pep-E (P) was 24 μg/day/mouse (medium dosage, “m”) and 48 μg/day/mouse (high dosage, “h”). Food-intake (A and C) and body weight (B and D) were monitored daily throughout the infusion. The arrows in A-D indicate the day of surgery. At the end of infusion, blood samples were collected for the measurement of blood-glucose, human CRP, and human leptin. The serum concentrations of human CRP and human leptin were 0.85±0.1 μg/ml and 18 ng±2 ng/ml, respectively. […] Also shown is glucose concentration from mice infused with human CRP and leptin but not with Pep-E.
In the in vivo experiment, polypeptide E was co-infused through mini-osmotic pumps with human CRP and leptin into the ob/ob mice. Food intake in the period of 24 hours and body weight were followed during the infusion period (FIGS. 11A-11D).

Series [2] has as its system IL-6 induced activation of STAT3. The series can be described thus: IL-6 induced activation of STAT3 in human primary hepatocytes. The format is cell-based. The following applies: even higher CRP concentration. The text has this: Human hepatocytes were isolated from donor livers. Briefly, the livers were perfused in a three-step process. A calcium-free buffer supplemented with EGTA is used to break […] junctions, which is followed by the same perfusion buffer without EGTA. Finally, a calcium-containing buffer supplemented with digestive enzymes (collagenase and DNase) was used. Following digestion, parenchymal hepatocytes were isolated by three steps of low-speed centrifugation. Cells with a viability of at least 85% were plated and cultured in hepatocytes maintenance medium (HMM) (Cambrex BioScience, Walkersville, Md.) supplemented with 10% fetal bovine serum (FBS), 0.1 μM dexamethasone, 0.1 μM insulin, and 50 μg/ml gentamicin on collagen-coated tissue culture dishes for 2-4 hours. The cells were subsequently cultured in the above medium without FBS.
Approximately 24 hours after seeded, the hepatocytes were washed with serum-free HMM supplemented with 0.1 μM dexamethasone and 0.1 μM insulin, and then cultured in the same medium for another 48 hours. Subsequently, the cells were switched to serum-free HMM supplemented with 0.1 μM dexamethasone before stimulated with leptin (NHPP) or rhIL-6 (R&D Systems, Minneapolis, Minn.) for 24 hours or 48 hours. For experiments involving PI3-kinase inhibitors, hepatocytes were pretreated with LY294002 (EMD Biosciences, Calif.) for 1 hour before hormonal stimulation.

pKd: −log10 of the molar value.

Consider human leptin: human recombinant leptin, for which, in series [1] (HEK293 cells stably transfected with OB-Rb), the pKd is 9.00.
As for “human CRP: human C-reactive protein, purified preparation from a commercial source”, in the series with human OB-Rb, the “IC50 of human CRP for reducing 125I-labeled mouse leptin binding to receptor” value is recorded as “greater than 64 μg/ml”. Moreover, in the series with ob/ob mice (end of infusion, 48 μg/day/mouse), the “serum concentration of human CRP” value is 850 ± 100 ng/mL. Further, in the series with ob/ob mice (human CRP 48 μg/day/mouse, leptin 12 μg/day/mouse), the “effect of human CRP on satiety and weight-reducing effects of human leptin in the absence of the polypeptide” value was “able to block the satiety and weight-reducing effects”. In addition, the “IC50 of human CRP for reducing 125I-labeled human leptin binding to its receptor” value in series [1] (in the presence of about 2 ng/ml human leptin, 1 hour pre-incubation) is reported as “approximately 80 ng/ml”. In addition, the “effect on IL-6 induced activation of STAT3” value in series [2] was “did not suppress”.

Broadly, the pKd is the Kd on a negative log10 scale, so that one unit is a factor of ten. A high value points to a low Kd.
